Assay results taken from patent US8821943B2, “Methods and compositions for targeted delivery of therapeutic agents” (Board of Regents of the University of Nebraska, priority 2006, dated 2014).
Read-outs that look alike come from different tables or passages of the source. Values belong to the compound of their own block, whether it stands above or below them.

Assays:
LHRH-receptor = assay: Receptor binding assays (kinetic, saturation, competition) with 125I-deslorelin in bovine pituitary and nasal tissue homogenates; settings: for IC50: read-out: Low affinity - IC50 II
Procedure: Radioactivity was measured in the pellet using a Perkin-Elmer γ-counter.
Reprod. […] Reprod. […] Radioactivity was measured in the pellet using a Perkin-Elmer γ-counter. […] The experiment was repeated three times.
Competition Studies: To determine the amount of unlabelled deslorelin required to displace the radioactivity, competition studies were conducted. […] Assays were performed in triplicates. At the end of 4 hr, the incubation tubes were centrifuged at 10,000 g for 20 min at 4° C. to separate the bound fraction. Radioactivity was measured in the pellet using a Perkin-Elmer γ-counter. The same controls as in the kinetic and saturation studies were used. The experiment was repeated three times.

[1] = in vivo, cited from earlier work
[2] = 3H-mannitol transport across excised bovine cornea (corneal barrier integrity); format: in vitro ADME; settings: read-out: apparent permeability coefficient of mannitol
Procedure: The corneal barrier integrity in the ex vivo bovine model of Example 5 was also studied by analysis of ^3H-mannitol transport, with or without nanoparticle exposure. ^3H-mannitol was obtained from American Radiolabeled Chemicals, Inc. (St. Louis, Mo.). ^3H-mannitol transport across excised bovine cornea was performed without any treatment or after dosing the bovine ex vivo eye model with a 50 μl drop of assay buffer or 50 μl of 1 mg/ml nanoparticle suspension followed by incubation up to 60 min with buffer treatments as described above. Temperature was maintained at 37° C.
At 0, 5 and 60 minutes after assay buffer drop instillation and 60 min after nanoparticles drop instillation, the eyes were washed thrice with assay buffer (1 ml each time) and the corneas were isolated from the eyeball. The tissues were then mounted in modified Ussing chambers (Navicyte, Reno, N.Y.) for mannitol transport study. The aperture area of the chambers is 0.64 cm^2. The corneal area exposed was expected to be slightly greater than the chamber aperture area due to corneal curvature. ^3H-mannitol (1.5 ml; 1 μCi/ml) was placed in the donor chamber (epithelial to endothelial transport) and plain assay buffer (1.5 ml) was placed in the receiver chamber. At various time points up to 4 hours, 200 μl samples were removed from the receiver chamber and replaced with an equal volume of fresh assay buffer. To each sample, 4 ml of scintillation fluid (Fisher Scientific, NJ) was added and the radioactivity was quantified using a liquid scintillation counter. […] Data are expressed as mean±standard deviation for n=4.

[3] = test system: bovine corneal epithelium, stroma, endothelium and aqueous humor; assay: Eye drop nanoparticle uptake in excised (ex vivo) bovine eye model; format: in vitro ADME
Procedure: The precorneal residence of eye drops is very short and effective delivery to the cornea requires rapid binding and entry of drugs or carriers in vivo. The in vivo situation was simulated using an intact bovine eye for an ex vivo model. […] Then, the particle uptake at 5 and 60 min was measured following thorough washing of the eye surface to remove any loosely adherent particles. The uptake was expected to be the highest for the solutes or carriers tightly bound to the corneal surface or for those that are rapidly taken up by the corneal epithelium. To maintain the surface moisture and to simulate tear flow in part, buffer drops (50 μl) were administered every 15 min, and the water bath was sealed.
Freshly excised bovine eyes were obtained from a local slaughterhouse (Nebraska Beef, Omaha, Nebr.). The experiments were initiated within 2-3 hours after sacrifice. For the experiment, bovine eyes were placed in Teflon coated wells containing assay buffer to immerse the posterior segment, while exposing the cornea towards the surface. The Teflon coated well plate was placed in a shaking water bath maintained at 37° C. and the water bath was sealed with Saran Wrap™ (S.C. Johnson & Son, Inc., Racine, Wis.). Alternatively, the setup was placed in a cold room maintained at 4° C. Prior to dosing, the eyes were equilibrated for about 30 min with assay buffer at 37° C. or 4° C. as required. The measured temperatures of the vitreous humor and aqueous humor in the 37° C. study were ˜37° C. and ˜35° C., respectively. The measured temperature was ˜5° C. for both vitreous humor as well as aqueous humor in the 4° C. study. In the ex vivo studies, either 5 or 60 min time points were chosen since eye drops are rapidly cleared from the tissue surface and because high solute uptake is desired in a short time with eye drops.
Ex vivo model studies involved administration of a 50 μl dosing solution/suspension drop to the cornea followed by 50 μl drops of assay buffer on the cornea every 15 minutes to maintain corneal moisture. At the end of 0, 5, or 60 minutes study, the corneal surface was washed thrice with assay buffer (1 ml each time) followed by three washes with acid buffer (1 ml each time; assay buffer adjusted to pH 5.0 with HCl) to remove any loosely adherent nanoparticles prior to tissue analysis. The same protocol was followed even when plain buffer drops were assessed. To initiate the uptake experiment, a 50 μl eye drop of 10 mg/ml (in studies assessing the influence of epithelium in particle uptake) or 1 mg/ml nanoparticle suspension (unconjugated nanoparticles with carboxylate functionalities, deslorelin-CA and transferrin-CA) was topically administered to isolated bovine eyeballs. Buffer and wash treatments were performed as described above. At 5 and 60 minutes after drop instillation, the incubation was terminated and the corneal epithelium, stroma, endothelium and aqueous humor (0.5 ml) were isolated from the eyeball. The tissues were homogenized in 2% Triton-X. The supernatant obtained after centrifuging tissue homogenate at 5000 rpm (Marathon Micro AR, Fisher Scientific) for 10 minutes was analyzed by spectrofluorometry at excitation and emission wavelengths of 505 and 515 nm, respectively.

[4] = Particle size, polydispersity and zeta-potential by dynamic light scattering; format: physicochemical; settings: Table 2, polystyrene nanoparticles
Procedure: Nanoparticle carrier particles were formed by the methods of the preceding Example, and characterized as follows. The particle size and the zeta-potential were measured using Zeta Plus zeta-potential analyzer (Brookhaven Instruments Ltd., New York, N.Y.), which employs the dynamic light scattering technique for particle size measurement. The particle size and zeta-potential measurements were made after 1:1000 dilution of particle stock in filtered deionized water. Further, the particles were visualized using a transmission electron microscope (TEM). The carbon-coated grids were floated on a suspension droplet of plain or functionalized nanoparticles on a flexible plastic film (Parafilm, Pechiney Plastic Packaging, Neenah, Wis.) to allow the adsorption of nanoparticles onto the grid. After drying the particles, uranyl acetate was added as a negative stain to the carbon grid and allowed to react with the particles. This procedure makes the particles electron dense, allowing their visualization using an electron microscope. The particles were photographed using EM410 Phillips electron microscope (Eindhoven, The Netherlands) set at 60 kV and a magnification of 153000×.
Characterization of particles: The particle size and the zeta-potential were measured using ZetaPlus® zeta-potential analyzer, Brookhaven Instruments Ltd. (New York, N.Y.), which employs the dynamic light scattering technique for particle size measurement. The particle size and zeta-potential measurements were carried out after 1:1000 dilution of particle stock in filtered deionized water before lyophilization in filtered deionized water. The effective diameter of conjugated nanoparticles was higher than that of unconjugated nanoparticles.
Particle Size Analysis: Particle size and zeta-potential of the nanoparticles before and after conjugation following lyophilization were measured in double distilled water (100 μl of particle/1 ml of water) using dynamic light scattering (DLS). After lyophilization the plasmid loaded particles were weighed (1 mg) into glass Kimble tubes. To each tube, 1 ml of double distilled water was added and vortexed at high speed (Vortex Genie, Scientific Industries, Bohemia, N.Y.) till the particles were resuspended. The particle size and zeta potential was determined using dynamic light scattering after dilution (1:10 in double distilled water) (Brookhaven Instruments Corp., Holtsville, N.Y.). Nanoparticle size after lyophilization was 210.4±0.68 nm and zeta potential was −32.85±0.87 mV. Nanoparticle size and zeta potential was measured after conjugation with deslorelin and transferrin. Similarly, the unconjugated nanoparticles were also treated under the same conditions as with the conjugated nanoparticles (the conjugation protocol as mentioned above).
Transport studies were conducted in bovine nasal tissue. Bovine nasal tissue was obtained from freshly slaughtered cattle, and different regions (MTA, MTP, ITP) were prepared as described in Example 13. Nanoparticles coupled to deslorelin or transferring via aldehyde sulfate moieties were prepared as described in Example 3. The nanoparticle size was measured using a Zeta Plus Analyzer (Brookhaven Instruments Limited, UK). Particle size was analyzed before and after ligand conjugation in deionized filtered water.

excised bovine cornea = assay: Nanoparticle transport and uptake, excised bovine cornea in modified Ussing chambers; format: in vitro ADME
Procedure: (§1) Nanoparticle uptake and transport studies were performed using excised bovine cornea and conjunctiva mounted in vertical diffusion chambers. Modified Ussing chambers (Navicyte, Reno, N.Y.) were used to mount bovine corneas and conjunctivas for transport studies. The tissues were exposed to 1.5 ml of assay buffer with either conjugated or unconjugated nanoparticles (100 μg/ml) on the mucosal/tear side (donor side). The area of exposure is 0.64 cm^2 for conjunctiva and slightly greater for cornea due to curvature. The receiver side was exposed to 1.5 ml of assay buffer without nanoparticles. The buffers were pre-equilibrated to 37° C. or 4° C. as required and the chambers were maintained at the desired temperature. […] The experiment was terminated at 4 hours and the samples were stored in polypropylene tubes at 4° C. until analysis.
(§2) At the end of 4 hour transport studies, the tissue area exposed to particle suspension (aperture area: 0.64 cm^2) were cut and washed thrice with assay buffer followed by the acid buffer (pH 5.0). The tissues were then homogenized in 2% Triton-X using Tissue Tearor™. The tissue debris was separated by centrifugation at 3000 rpm (Marathon Micro AR) for 10 minutes. The supernatant was collected to analyze the amount of nanoparticles taken up by the tissue. The supernatant was analyzed by spectrofluorometry at excitation and emission wavelengths of 505 and 515 nm, respectively.

[5] = test system: excised bovine conjunctiva; assay: Nanoparticle transport and uptake, excised bovine conjunctiva in modified Ussing chambers; format: in vitro ADME
Procedure: as §1, §2

[6] = Corneal Epithelium, 50 μl of 1 mg/ml
[7] = Corneal Stroma, 50 μl of 1 mg/ml
[8] = versus unconjugated nanoparticles, 37° C.

IC50 (LHRH-receptor; ITP): 0.0329 ± 0.00125 µM
IC50 (LHRH-receptor; MTA): 0.0532 ± 0.004 µM
IC50 (LHRH-receptor; MTP): 0.0421 ± 0.00184 µM
IC50 (LHRH-receptor; Pituitary, competition with 125I-deslorelin): 0.0179 ± 0.000449 µM
high affinity binding sites as share of all the binding sites available (LHRH-receptor; competition studies, nasal tissue regions): 60-70%
Compound: CCNC(=O)[C@@H]1CCCN1C(=O)[C@H](CCCN=C(N)N)NC(=O)[C@H](CC(C)C)NC(=O)[C@@H](Cc1c[nH]c2ccccc12)NC(=O)[C@H](Cc1ccc(O)cc1)NC(=O)[C@H](CO)NC(=O)[C@H](Cc1c[nH]c2ccccc12)NC(=O)[C@H](Cc1cnc[nH]1)NC(=O)[C@@H]1CCC(=O)N1 [deslorelin]

Compound: CCNC(=O)[C@@H]1CCCN1C(=O)[C@H](CCCNC(=N)N)NC(=O)[C@H](CC(C)C)NC(=O)[C@@H](CC(C)C)NC(=O)[C@H](Cc1ccc(O)cc1)NC(=O)[C@H](CO)NC(=O)[C@H](Cc1c[nH]c2ccccc12)NC(=O)[C@H](Cc1c[nH]cn1)NC(=O)[C@@H]1CCC(=O)N1 [leuprolide]
bioavailability ([1]; inhaled or intranasal): 2.9%
bioavailability [1]: 28%

Papp at 4 h, 1 μCi/ml ([2]; corneas isolated at 5 min following 50 μl assay buffer drop): 5 ± 1 nm/s
Papp at 4 h, 1 μCi/ml ([2]; corneas isolated at 60 min following 50 μl assay buffer drop): 4.7 ± 0.4 nm/s
Papp at 4 h, 1 μCi/ml ([2]; freshly isolated corneas): 4 ± 1 nm/s
Compound: OC[C@@H](O)[C@@H](O)[C@H](O)[C@H](O)CO [mannitol]

Compound: Transferrin-CA: transferrin-carboxylate-conjugated polystyrene nanoparticles
Corneal epithelial uptake (60 min) ([3]; Control (4° C.)): 307.1 ± 124 ng/mg tissue/mg dose
Corneal epithelial uptake (60 min) ([3]; Control (37° C.)): 1146.3 ± 306.6 ng/mg tissue/mg dose
Concentration at 5 min [3, 6]: 791 ± 239 ng/mg tissue/mg dose
Concentration at 60 min [3, 6]: 1146 ± 307 ng/mg tissue/mg dose
NP uptake at 5 min (%) [3, 6]: 4.96%
NP uptake at 60 min (%) [3, 6]: 7.19%
NP uptake at 5 min (%) [3, 7]: 10.98%
NP uptake at 60 min (%) [3, 7]: 3.31%
Corneal epithelial uptake (60 min) ([3]; With free ligand (37° C.), free deslorelin or transferrin 1 mg/ml): 467.1 ± 131.9 ng/mg tissue/mg dose
total corneal uptake in 5 min ([3]; summary of Examples 5-8): ~16%
Zeta potential [4]: −29.24 ± 4.33 mV
Measured Diameter ([4]; 1:1000 dilution in filtered deionized water, includes hydrodynamic layer, n = 3): 84.7 ± 0.8 nm
uptake by isolated bovine cornea at the end of 4 hours (excised bovine cornea; 37° C.): 2.36±0.03%
cumulative transport in 4 hours across isolated bovine cornea (excised bovine cornea; 37° C., 100 μg/ml donor): 2.76±0.03%
reduction in corneal uptake at 4° C. (excised bovine cornea; versus 37° C.): 47%
increase of percent transport across bovine cornea by conjugation (excised bovine cornea; [8]): 74%
uptake in bovine conjunctiva at the end of 4 hours ([5]; 37° C.): 2.83±0.03%
cumulative transport in 4 hours across conjunctiva ([5]; 37° C., 100 μg/ml donor): 3.5±0.1%
reduction in conjunctival uptake at 4° C. ([5]; versus 37° C.): 52%
reduction in the cumulative transport in conjunctiva at 4° C. ([5]; versus 37° C.): 89%
increase of percent transport across conjunctiva by conjugation [5, 8]: 51%
